According to patent publication US20120277144:

Molecular target: cdc42, P60953
Sequence (P60953 1-188): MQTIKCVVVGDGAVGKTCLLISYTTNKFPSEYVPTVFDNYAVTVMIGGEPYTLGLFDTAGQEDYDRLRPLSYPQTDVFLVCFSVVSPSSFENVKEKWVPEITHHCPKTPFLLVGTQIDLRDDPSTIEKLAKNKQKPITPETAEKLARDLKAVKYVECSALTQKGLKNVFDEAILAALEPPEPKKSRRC

B1: FYVE, RhoGEF and PH domain-containing 5 (FGD5) (protein)
chain: MFRGPKPPIAPKPRLTAPNEWRASVYLNDSLNKCSNGRLPCVDRGLDEGPRSIPKCSESETDEDYIVVPRVPLREDEPKDEGSVGNKALVSPESSAEEEEEREEGGEACGLEGTGAGEDSVAPAAPGAGALSREGEEGTDLALEDEGEGCADEPGTLEQVSRSEEEEKLVQPHRECSLEDSGPWAGEGVFQSDLLLPHIHGEDQEPPDTPGEAEEDDEEGCASTDPAGADEGSGPDRPTEDMGQDAEDTSEEPPEKEELAGVQEAETATDCPEVLEEGCEEATGVTGGEQVDLSEPPDHEKKTNQEVAAATLEDHAQDESAEESCQIVPFENDCMEDFVTSLTGSPYEFFPTESTSFCSESCSPLSESAKGLESEQAPKLGLRAEENPMVGALCGQCGSLQGGAAEGPAAPDVVVVLEEEALDDALANPYVMGVGLPGQAAPGEGGQAASDALGGYGSKEELNCEAEGGLVPADRKNTSTRVRPHSGKVAGYVPETVPEETGPEAGSSAPGIGGAAEEVGKTLLSLEGKPLEASRALPAKPRAFTLYPRSFSVEGREIPVSVYQEPEGSGLDDHRIKRKEDNLSLSCVIGSSGSFSQRNHLPSSGTSTPSSMVDIPPPFDLACITKKPITKSSPSLLIESDSPDKYKKKKSSFKRFLALTFKKKTENKLHVDVNVSSSRSSSESSYHGPSRILEVDRRSLSNSPQLKSRTGKLRASESPSSLIFYRDGKRKGVPFSRTVSRVESFEDRSRPPFLPLPLTKPRSISFPSADTSDYENIPAMNSDYENIQIPPRRPARAGAFTKLFEDQSRALSTANENDGYVDMSSFNAFESKQQSADQDAESAYTEPYKVCPISSAAPKEDLTSDEEQRSSEEEDSASRDPSVTHKVEGQSRALVIAQELLSSEKAYVEMLQHLNLDFHGAVMRALDDMDHEGRDTLAREELRQGLSELPAIHDLHQGILEELEERLSNWESQQKVADVFLAREQGFDHHATHILQFDRYLGLLSENCLHSPRLAAAVREFEQSVQGGSQTAKHRLLRVVQRLFQYQVLLTDYLNNLCPDSAEYDNTQGALSLISKVTDRANDSMEQGENLQKLVHIEHSVRGQGDLLQPGREFLKEGTLMKVTGKNRRPRHLFLMNDVLLYTYPQKDGKYRLKNTLAVANMKVSRPVMEKVPYALKIETSESCLMLSASSCAERDEWYGCLSRALPEDYKAQALAAFHHSVEIRERLGVSLGERPPTLVPVTHVMMCMNCGCDFSLTLRRHHCHACGKIVCRNCSRNKYPLKYLKDRMAKVCDGCFGELKKRGRAVPGLMRERPVSMSFPLSSPRFSGSAFSSVFQSINPSTFKKQKKVPSALTEVAASGEGSAISGYLSRCKRGKRHWKKLWFVIKGKVLYTYMASEDKVALESMPLLGFTIAPEKEEGSSEVGPIFHLYHKKTLFYSFKAEDTNSAQRWIEAMEDASVL
GTP-cdc42 level in a GEF-activity assay (G-lisa, chemo-luminescent measurement of GTP-bound small G-proteins in lysates of Sham Ad or Ad-FGD5 transfected HUVECs): cdc42-FGD5 binding led to specific activation of cdc42 in a GEF-activity assay
